From article PMC9482650, “Quantitative fragmentomics allow affinity mapping of interactomes” (Nature Communications, 2022)

What was measured:
Test in all cases: PDZ-AP-MS, biotinylated MBP-PDZ baits
Format in all cases: binding, human
[1] = test system: HeLa cell extract preys; conditions: for Ratio: fold enrichment of prey; for Difference: log2 enrichment of prey
Description: (§1) For PDZ-AP-MS experiments, PDZ domains were cloned as His6-AviTag-MBP-PDZ constructs. For co-expression with BirA, E. coli BL21(DE3) cells were co-transformed with His6-AviTag-MBP, or His6-AviTag-MBP-PDZ-coding and PET21a-BirA (Addgene #20857) plasmids. Simultaneously to IPTG induction, 50 µM biotin was added to the media. After cell harvesting, the lysis buffer was also supplemented with 50 µM biotin. Otherwise, expression and double affinity purification was identical as previously described in details.
(§2) For PBM-AP-MS experiments, 30 μl streptavidin resin was mixed with biotin or peptide at 50–60 μM concentration in 6–6.5 resin volume for 60 min to achieve resin saturation. For PDZ-AP-MS experiments, 30 μl streptavidin resin was mixed with biotinylated MBP or MBP-PDZ at 40-50 μM concentration in >1000× resin volume for 60 min to achieve resin saturation. After saturation, resins were washed a single time (ten resin volume, holdup buffer), and were depleted with biotin (1 mM biotin, 5–10 resin volume, 10 min). Finally, resins were washed two times. 0.5 ml 2 mg/ml cell lysate was added to the dry resin (1 mg total input) and were incubated at 4 °C for 2 h. Then, the beads were washed three times with 10 resin volume buffer containing: 50 mM TRIS pH 8.5, 150 mM NaCl, 1% TritonX-100, 10× complete EDTA-free protease inhibitor cocktail, 2 mM EDTA, 1 mM TCEP. Then, the beads were washed two times with ten resin volume buffer containing: 50 mM TRIS pH 8.5, 150 mM NaCl, 1 mM TCEP. Finally, captured protein was eluted from the resin in two steps and the eluted fractions were pooled. For each elution the beads were incubated for 30 min with three resin volume buffer containing: 20 mM TRIS pH8.5, 100 mM NaCl, 500 μM TCEP, 8 M Urea. Between each step, the beads were separated by mild centrifugation and the supernatant was removed by gentle pipetting.
(§3) The samples were precipitated with TCA 20% overnight at 4 °C and centrifuged at 14,000 rpm for 10 min at 4 °C. The protein pellets were washed twice with 1 mL cold acetone and air dried. The protein extracts were solubilized in urea 8 M, reduced with 5 mM TCEP for 30 min, and alkylated with 10 mM iodoacetamide for 30 min in the dark. Double digestion was performed at 37 °C with 500 ng endoproteinase Lys-C for 4 h, followed by fourfold dilution and an overnight digestion with 500 ng trypsin. Peptide mixtures were then desalted on C18 spin-column and dried on Speed-Vacuum.
(§4) Samples were analyzed using an Ultimate 3000 nano-RSLC (Thermo Scientific, San Jose California) coupled in line with a LTQ-Orbitrap ELITE mass spectrometer via a nano-electrospray ionization source (Thermo Scientific, San Jose California). Peptide mixtures were injected in 0.1% TFA on a C18 Acclaim PepMap100 trap-column (75 µm ID × 2 cm, 3 µm, 100 Å, Thermo Fisher Scientific) for 3 min at 5 µL/min with 2% ACN, 0.1% FA in H2O and then separated on a C18 Accucore nano-column (75 µm ID × 50 cm, 2.6 µm, 150 Å, Thermo Fisher Scientific) at 220 nl/min and 38 °C with a 90 min linear gradient from 5% to 30% buffer B (A: 0.1% FA in H2O/B: 99% ACN, 0.1% FA in H2O), regeneration at 5% B. The mass spectrometer was operated in positive ionization mode, in data-dependent mode with survey scans from m/z 350–1500 acquired in the Orbitrap at a resolution of 120,000 at m/z 400. The 20 most intense peaks from survey scans were selected for further fragmentation in the Linear Ion Trap with an isolation window of 2.0 Da and were fragmented by CID with normalized collision energy of 35%. (TOP20CID method) Unassigned and single charged states were excluded from fragmentation. The Ion Target Value for the survey scans (in the Orbitrap) and the MS2 mode (in the Linear Ion Trap) were set to 1E6 and 5E3 respectively and the maximum injection time was set to 100 ms for both scan modes. Dynamic exclusion was set to 20 s after one repeat count with mass width at ±10 ppm. […]

[2] = test system: HaCat cell extract preys; conditions: for Difference log2: bait TX1BP3 PDZ vs MBP, enrichment of prey; for Ratio TX1BP3/MBP: bait TX1BP3 PDZ, fold change of prey
Description: as §1, §2, §3, §4

[3] = test system: Jurkat cell extract preys; conditions: for Difference log2: enrichment of prey
Description: as §1, §2, §3, §4

[4] = PDZ-AP-MS fold change of the PBM-protein prey, bait MBP-PDZ DLG1_1
[5] = PDZ-AP-MS fold change of the PBM-protein prey, bait MBP-PDZ DLG1_2
[6] = PDZ-AP-MS fold change of the PBM-protein prey, bait MBP-PDZ SCRIB_1
[7] = PDZ-AP-MS fold change of the PBM-protein prey, bait MBP-PDZ SCRIB_2
[8] = PDZ-AP-MS fold change of the PBM-protein prey, bait MBP-PDZ SNX27
[9] = PDZ-AP-MS fold change of the PBM-protein prey, bait MBP-PDZ TX1BP3

B1: CAPRIN1 (protein, UniProt Q14444 2-709, looked up)
Caprin-1: PSATSHSGSGSKSSGPPPPSGSSGSEAAAGAGAAAPASQHPATGTGAVQTEAMKQILGVIDKKLRNLEKKKGKLDDYQERMNKGERLNQDQLDAVSKYQEVTNNLEFAKELQRSFMALSQDIQKTIKKTARREQLMREEAEQKRLKTVLELQYVLDKLGDDEVRTDLKQGLNGVPILSEEELSLLDEFYKLVDPERDMSLRLNEQYEHASIHLWDLLEGKEKPVCGTTYKVLKEIVERVFQSNYFDSTHNHQNGLCEEEEAASAPAVEDQVPEAEPEPAEEYTEQSEVESTEYVNRQFMAETQFTSGEKEQVDEWTVETVEVVNSLQQQPQAASPSVPEPHSLTPVAQADPLVRRQRVQDLMAQMQGPYNFIQDSMLDFENQTLDPAIVSAQPMNPTQNMDMPQLVCPPVHSESRLAQPNQVPVQPEATQVPLVSSTSEGYTASQPLYQPSHATEQRPQKEPIDQIQATISLNTDQTTASSSLPAASQPQVFQAGTSKPLHSSGINVNAAPFQSMQTVFNMNAPVPPVNEPETLKQQNQYQASYNQSFSSQPHQVEQTELQQEQLQTVVGTYHGSPDQSHQVTGNHQQPPQQNTGFPRSNQPYYNSRGVSRGGSRGARGLMNGYRGPANGFRGGYDGYRPSFSNTPNSGYTQSQFSAPRDYSGYQRDGYQQNFKRGSGQSGPRGAPRGRGGPPRPNRGMPQMNTQQVN
[1]; bait DLG1_1 PDZ vs MBP control
  Ratio: 30.4665
  Difference: 4.929

B2: TAX1BP3 (protein, UniProt O14907 2-124, looked up)
Tax1-binding protein 3: SYIPGQPVTAVVQRVEIHKLRQGENLILGFSIGGGIDQDPSQNPFSEDKTDKGIYVTRVSEGGPAEIAGLQIGDKIMQVNGWDMTMVTHDQARKRLTKRSEEVVRLLVTRQSLQKAVQQSMLS
[1]; bait TX1BP3 PDZ vs MBP control
  Ratio: 86.5427
  Difference: 6.435
[2]
  Difference log2: 10.0746
  Ratio TX1BP3/MBP: 1078.31
[3]; bait DLG1_1 PDZ vs MBP
  Difference log2: 4.078
[3]; bait DLG1_1 PDZ, fold change of prey
  Ratio DLG1_1 / MBP: 16.8941
[3]; bait TX1BP3 PDZ vs MBP
  Difference log2: 12.2171
[3]; bait TX1BP3 PDZ, fold change of prey
  Ratio TX1BP3/MBP: 4761.06

B3: TX1BP3 (protein, UniProt O14907 2-124, looked up)
Tax1-binding protein 3: B2 Tax1-binding protein 3
[2]
  Difference log2: 9.132
  Ratio TX1BP3/MBP: 561.056

B4: ALDH9A1 (protein, UniProt P49189 1-494, looked up)
4-trimethylaminobutyraldehyde …: MSTGTFVVSQPLNYRGGARVEPADASGTEKAFEPATGRVIATFTCSGEKEVNLAVQNAKAAFKIWSQKSGMERCRILLEAARIIREREDEIATMECINNGKSIFEARLDIDISWQCLEYYAGLAASMAGEHIQLPGGSFGYTRREPLGVCVGIGAWNYPFQIASWKSAPALACGNAMVFKPSPFTPVSALLLAEIYSEAGVPPGLFNVVQGGAATGQFLCQHPDVAKVSFTGSVPTGMKIMEMSAKGIKPVTLELGGKSPLIIFSDCDMNNAVKGALMANFLTQGQVCCNGTRVFVQKEILDKFTEEVVKQTQRIKIGDPLLEDTRMGPLINRPHLERVLGFVKVAKEQGAKVLCGGDIYVPEDPKLKDGYYMRPCVLTNCRDDMTCVKEEIFGPVMSILSFDTEAEVLERANDTTFGLAAGVFTRDIQRAHRVVAELQAGTCFINNYNVSPVELPFGGYKKSGFGRENGRVTIEYYSQLKTVCVEMGDVESAF
[1]; [4]
  Fold changes, HeLa, DLG1_1: 0.965
[1]; [5]
  Fold changes, HeLa, DLG1_2: 0.6499
[1]; [6]
  Fold changes, HeLa, SCRIB_1: 1.5654
[1]; [7]
  Fold changes, HeLa, SCRIB_2: 0.9621
[1]; [8]
  Fold changes, HeLa, SNX27: 23.2299
[1]; [9]
  Fold changes, HeLa, TX1BP3: 0.8902
[2]; [4]
  Fold changes, HaCat, DLG1_1: 0.7692
[2]; [5]
  Fold changes, HaCat, DLG1_2: 1.032
[2]; [6]
  Fold changes, HaCat, SCRIB_1: 3.899
[2]; [7]
  Fold changes, HaCat, SCRIB_2: 0.6746
[2]; [8]
  Fold changes, HaCat, SNX27: 57.4815
[2]; [9]
  Fold changes, HaCat, TX1BP3: 0.8437
[3]; [4]
  Fold changes, Jurkat, DLG1_1: 0.4996
[3]; [5]
  Fold changes, Jurkat, DLG1_2: 10.9748
[3]; [6]
  Fold changes, Jurkat, SCRIB_1: 0.5795
[3]; [7]
  Fold changes, Jurkat, SCRIB_2: 0.6928
[3]; [8]
  Fold changes, Jurkat, SNX27: 23.7963
[3]; [9]
  Fold changes, Jurkat, TX1BP3: 0.5031
